The values that follow come from patent publication US11111484B2, “Streptococcus bacteriophage lysins for detection and treatment of gram positive bacteria” (priority 2011, dated 2021).

One assay has as its system MRSA strain MW2. In words: murine septicemia model, MRSA infection alone. The assay is classed as in vivo, FVB/NJ mice. Conditions: PlySs2 1 mg. Here is the method: The Rockefeller University's Institutional Animal Care and Use Committee approved all in vivo protocols. A systemic infection model described in Daniel, A. et al., was used to test for the in vivo efficacy of PlySs2 against multiple gram-positive bacteria. Briefly, 4-5 week old female FVB/NJ mice (weight range 15 to 20 g) were obtained from The Jackson Laboratory (Bar Harbor, Me.). After a period of acclimation, mice were injected intraperitoneally (IP) with 0.5 ml of mid log-phase (OD600 0.5) bacteria diluted with 5% hog gastric mucin (Sigma) in saline. Bacterial suspensions contained ˜5×10^5 CFU/ml of MW2, a PVL toxin-encoding MRSA strain, ˜1×10^7 of MGAS5005, an M1 serotype of Streptococcus pyogenes that is virulent in humans and mice (Musser), or a combination of both bacteria simultaneously at the above concentrations for the mix infection experiments. Actual bacterial inoculation titers were calculated by serial dilution and plating to Columbia blood agar plates for each experiment. Mice became bacteremic within one to three hours and contained MRSA and/or S. pyogenes in their organs (including spleen, liver, kidney, and heart/blood) ([50], and unpublished observations). […] The survival rate for each experimental group was monitored every 12 hours for the first 24 hours then every 24 hours up to 10 days post-infection. The data were statistically analyzed by Kaplan Meier Survival curves and a Logrank test performed for 95% confidence intervals using the Prism computer program (GraphPad Software; La Jolla, Calif.).
To determine if the broad lytic activity of PlySs2 could provide in vivo protection from infection with gram-positive pathogens, either alone or as a mixed infection, FVB/NJ mice were intraperitoneally injected with ˜5×10^5 CFU of MRSA strain MW2, ˜1×10^7 of S. pyogenes strain MGAS5005 and/or both bacteria simultaneously at the concentrations above. […] Mice were then monitored for survival over ten days. […]

For the next assay, the system named is S. pyogenes. In words: CFU studies, bactericidal effect. Conditions: 128 μg/ml PlySs2, 1 hour. The format is cell-based, Streptococcus pyogenes. Here is the method: (§1) Log-phase bacteria were resuspended in buffer A to an OD600 of 0.1 (=0.5 McFarland≈10^8 CFU/ml). PlySs2 was added at 128 μg/ml to polypropylene microtiter plates (Costar) in triplicate for each test organism. Plates were sealed and incubated at 37° C. with shaking every 5 minutes for 1 hour. After 1 hour of incubation, cells were serially diluted in 10-fold increments and plated on BHI. Triplicate controls for each strain were performed with buffer B replacing PlySs2.

Another assay has as its system E. coli. The assay can be described thus: CFU studies, bactericidal effect. The format is cell-based, Escherichia coli. Conditions: E. coli negative control; 128 μg/ml PlySs2; 60 mins. Here is the method: as §1
For the next assay, the system named is MRSA MW2. In words: CFU studies, bactericidal effect. The assay is classed as cell-based, Staphylococcus aureus. As to conditions: 128 μg/ml PlySs2, 1 hour. Here is the method: as §1
The test system of a further assay is MSSA strain 8325. The assay can be described thus: resistance assay, exposure to incrementally increasing concentrations. The format is cell-based, Staphylococcus aureus. Conditions: MSSA 8325; concentration doubled daily from 1/32 to 4× MIC over 8 days.
A further assay concerns S. aureus strains. In words: PlySs2 lytic activity against species and strains (FIG. 25). The format is cell-based, Staphylococcus aureus. As to conditions: all tested S. aureus strains; 32 μg/ml, 60 minutes. Here is the method: FIG. 25 provides PlySs2 activity against different species and strains. Log-phase cultures were exposed to 32 μg/ml PlySs2 for 60 minutes in phosphate buffer. The final OD600 of the treated samples were divided by the final OD600 of the untreated samples to generate the normalized values above. Multiple Staphylococci (including, but not limited to: MRSA, MSSA, and VISA), Streptococci, Listeria, Enterococci, and Bacilli were tested for susceptibility to PlySs2 activity. Escherichia and Pseudomonas were tested as Gram-negative controls.

In another assay the test system is S. equi 9528. The assay can be described thus: ΔPlySs1 OD600 lysis, 1 hr, optimal buffering conditions. The assay is classed as cell-based, Streptococcus equi.
Another assay relates to S. simulans TNK3. The assay is described as above. The assay is classed as cell-based, Staphylococcus simulans.
The next assay has as its system S. oralis 35037. The description is as above. The format is cell-based, Streptococcus oralis.
A further assay deals with B. thuringiensis HD73. The description is as above. The format is cell-based, Bacillus thuringiensis.
In the next assay the test system is M. luteus 4698. Described as above. The format is cell-based.
A further assay concerns S. pyogenes D471. The description is as above. The format is cell-based, Streptococcus pyogenes.
In a further assay the test system is B. cereus 14579. The assay is described as above. The assay is classed as cell-based, Bacillus cereus.

Entries after “also recorded” stand apart in the source; their conditions may differ.

B1: PlySs2: Streptococcus suis prophage lysin, SEQ ID NO:3; N-terminal CHAP domain and C-terminal SH3-type 5 domain (protein, listed as Streptococcus suis)
chain: MTTVNEALNNVRAQVGSGVSVGNGECYALASWYERMISPDATVGLGAGVGWVSGAIGDTISAKNIGSSYNWQANGWTVSTSGPFKAGQIVTLGATPGNPYGHVVIVEAVDGDRLTILEQNYGGKRYPVRNYYSAASYRQQVVHYITPPGTVAQSAPNLAGSRSYRETGTMTVTVDALNVRRAPNTSGEIVAVYKRGESFDYDTVIIDVNGYVWVSYIGGSGKRNYVATGATKDGKRFGNAWGTFK
Take B1: the “survival over 10 days (mice surviving/total)” value in the assay on MRSA strain MW2 (IP 3 h post-infection, ClyS 1 mg) is reported as 16/18. For the same molecule, the “mice died at forty-eight hours (dead/total)” value in the assay on MRSA strain MW2 is on record as 2/18. The “survival over 10 days” value in the assay on MRSA strain MW2 (ClyS 1 mg) is listed as 88%. For the same molecule, the “reduction of colony forming units (CFUs)” value in the assay with S. pyogenes turned out to be 3 logs; in the assay with MRSA MW2, 5 logs. For the same molecule, the “reduction in CFU counts” value in the assay with E. coli was “no reduction in number”. In the assay with MSSA strain 8325, the development of resistance entry is recorded as “Neither S. aureus strain developed resistance; also recorded: None of MRSA strain MW2, MSSA strain 8325, nor S. pyogenes strain 5005 developed resistance”. Further, the “susceptibility to PlySs2 lysis” value in the assay with S. aureus strains is “highly susceptible”.

B2: ΔPlySs1: truncated PlySs1 lysin, SEQ ID NO:2, N-terminal 254 amino acids: only N-terminal enzymatic and central binding domains (protein, listed as Streptococcus suis)
chain: MTINLETSIRWMSDRVGKVSYSMDYRNGPNSYDCSSAVYYALMAGGAISAGWAVNTEYMHDWLIRNGYVLVAENKPFNAQRHDVCILGKRGYSSGAGGHVVIFVDNVNVIHCNYARNGISIDNYNQVHRGMYYYLYRPANQPSISNKSLDQLVKETLAGVHGNGDTRKASLGSQYEAVMAVINGKASASEKSDEELAREVLAGKHGAGEDRKRSLGPRYEPVQAKVNELLKAKEKPSETAKNEPQTVQFKEDGDL
With B2, the “lysis value after 1 hr (treated/untreated OD600 ratio)” value with S. equi 9528 (6.5 μg/ml) was determined as 0.66; in the assay on S. equi 9528 (13 μg/ml), 0.45; in the assay on S. equi 9528 (30 μg/ml) it was 0.25; in the assay with S. equi 9528 (65 μg/ml), 0.19; in the assay on S. equi 9528 (130 μg/ml), 0.16; in the assay with S. simulans TNK3 (6.5 μg/ml), 0.96. In addition, the “lysis value after 1 hr (treated/untreated OD600 ratio)” value in the assay on S. simulans TNK3 (13 μg/ml) was found to be 1.00; with S. simulans TNK3 (30 μg/ml) it was 1.00; with S. simulans TNK3 (65 μg/ml) it was 1.00; in the assay with S. simulans TNK3 (130 μg/ml) it was 0.96; in the assay on S. oralis 35037 (6.5 μg/ml), 0.30; in the assay with S. oralis 35037 (13 μg/ml), 0.13. Further, the “lysis value after 1 hr (treated/untreated OD600 ratio)” value in the assay on S. oralis 35037 (30 μg/ml) is listed as 0.08; in the assay on S. oralis 35037 (65 μg/ml), 0.07; with S. oralis 35037 (130 μg/ml), 0.04; with B. thuringiensis HD73 (6.5 μg/ml) it was 0.99; in the assay on B. thuringiensis HD73 (13 μg/ml), 0.98; with B. thuringiensis HD73 (30 μg/ml) it was 0.93. Besides, the “lysis value after 1 hr (treated/untreated OD600 ratio)” value is recorded as 0.86 with B. thuringiensis HD73 (65 μg/ml); 0.60 with B. thuringiensis HD73 (130 μg/ml); 0.84 with M. luteus 4698 (6.5 μg/ml); 0.90 in the assay on M. luteus 4698 (13 μg/ml); 0.83 in the assay on M. luteus 4698 (30 μg/ml); 0.87 in the assay with M. luteus 4698 (65 μg/ml). The “lysis value after 1 hr (treated/untreated OD600 ratio)” value in the assay with M. luteus 4698 (130 μg/ml) was found to be 0.82; in the assay on S. pyogenes D471 (6.5 μg/ml), 0.39; in the assay with S. pyogenes D471 (13 μg/ml) it was 0.27; in the assay with S. pyogenes D471 (30 μg/ml), 0.17; with S. pyogenes D471 (65 μg/ml) it was 0.13; with S. pyogenes D471 (130 μg/ml), 0.09. For the same molecule, the “lysis value after 1 hr (treated/untreated OD600 ratio)” value was 0.93 in the assay on B. cereus 14579 (6.5 μg/ml); 0.92 with B. cereus 14579 (13 μg/ml); 0.86 in the assay on B. cereus 14579 (30 μg/ml); 0.90 in the assay with B. cereus 14579 (65 μg/ml); 0.86 with B. cereus 14579 (130 μg/ml).
